From patent EP4339209A1 (MediMabbio Inc., dated 2024)

T1: human GITR expressed on human primary immune cells (T cells, NK cells, NKT cells of PBMC) (human, UniProt Q9Y5U5 26-241)
T1 construct: Native GITR of donor PBMC; also called hGITR in human primary immune cells; GITR on the surface of immune cells
T1 sequence: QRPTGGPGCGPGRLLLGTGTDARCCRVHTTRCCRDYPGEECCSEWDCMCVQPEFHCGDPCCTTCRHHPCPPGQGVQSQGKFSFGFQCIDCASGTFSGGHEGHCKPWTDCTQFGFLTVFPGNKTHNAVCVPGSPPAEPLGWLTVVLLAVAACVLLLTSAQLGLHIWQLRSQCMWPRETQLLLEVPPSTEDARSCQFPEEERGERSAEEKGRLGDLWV

T2: hGITR (including His tag; Cat. GIR-H5228, Acrobiosystems) (human, UniProt Q9Y5U5 26-162)
T2 construct: Bought protein; not shown: His tag
T2 sequence: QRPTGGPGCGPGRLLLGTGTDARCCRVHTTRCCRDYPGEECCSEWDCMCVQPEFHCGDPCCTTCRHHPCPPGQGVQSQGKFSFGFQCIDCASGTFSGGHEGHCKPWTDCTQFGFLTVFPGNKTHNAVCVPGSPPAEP

B1: anti-GITR 51B VH3/VL4 humanized antibody (human IgG1, kappa) (antibody, V domains shown)
VH: QVQLVQSGAEVKKPGASVKVSCKTTGYRFTGYWIEWVRQPPGKGLEWIGEILPGSGATYYSENFKGKVTITADTSTDTAYMELSSLRSEDTAIYYCARKGGYYAMDYWGQGTLVTVSS
VL: EIVLTQSPATLSLSPGERATLSCTASSSVSSSYFHWYQQKPGKAPKLWIYSTSNLQSGVPDRFSGSGSGTDYTLTISSLQAEDVATYYCHLYHRSPRTFGGGTKVEIKR
notes: also called VH3/Vk4; 51B VH3/Vk4
B2: anti-GITR 51B VH0/VL0 chimeric antibody (human IgG1, kappa) (antibody, V domains shown)
VH: QVQLQQSGAELMKPGASVKLSCKTTGYRFTGYWIEWVKQRPGHGLEWIGEILPGSGATYYSENFKGKATFTADTSSNTAYMQVSSLTTGDSAIYYCARKGGYYAMDYWGQGTSVTVSS
VL: QIVLTQSPAIMSASLGERVTMTCTASSSVSSSYFHWYQQKPGSSPKLWIYSTSNLASGVPARFSGSGSGTSYSLTVSSLEAEDAATYYCHLYHRSPRTFGGGTTLDIKR
notes: Chimeric antibody; also called VH0/Vk0; 51B VH0/Vk0
B3: 51B antibody (as used in the epitope mapping, Example 1.7) (antibody, V domains shown)
VH: QVQLQQSGAELMKPGASVKLSCKTTGYRFTGYWIEWVKQRPGHGLEWIGEILPGSGATYYSENFKGKATFTADTSSNTAYMQVSSLTTGDSAIYYCARKGGYYAMDYWGQGTSVTVSS
VL: QIVLTQSPAIMSASLGERVTMTCTASSSVSSSYFHWYQQKPGSSPKLWIYSTSNLASGVPARFSGSGSGTSYSLTVSSLEAEDAATYYCHLYHRSPRTFGGGTTLDIK
notes: also called anti-GITR monoclonal antibody (51B clone)

Columns and labels:
[1] = biological target: T1, human GITR expressed on human primary …; assay: flow cytometry, AF488-labelled antibody on activated human PBMC
[2] = biological target: recombinant human GITR (Cat No. 13643-H08H, Lot No. LC12JA2509, Sino Biological) (human) (UniProt Q9Y5U5); assay: SPR Biacore 8K, multi-cycle kinetics, purified IgG captured on Protein A, GITR as analyte
[3] = biological target: recombinant human GITR (Cat No. 13643-H08H, Lot No. LC12JA2509, Sino Biological) (human) (UniProt Q9Y5U5); assay: SPR Biacore 8K, single-cycle kinetics, IgG in supernatant captured on Protein A, GITR as analyte
[4] = biological target: T2, hGITR (including His tag; Cat. …); assay: DSS cross-linking of the GITR/51B complex, nLC-orbitrap MS/MS

| Binder | binding result [1] | Kd [2] [nM] | Relative KD (fold vs VH0/VL0) [2] | koff [2] [s⁻¹] | kon [2] [M⁻¹ s⁻¹] | Kd [3] [nM] | Relative KD (fold vs VH0/VL0) [3] | koff [3] [s⁻¹] | kon [3] [M⁻¹ s⁻¹] | binding result [4] |
| --- | --- | --- | --- | --- | --- | --- | --- | --- | --- | --- |
| B1 | binds | 0.675 | 1.19 | 0.00043 | 636000 | 0.758 | 1.3 | 0.000467 | 616000 | – |
| B2 | binds | 0.57 | 1 | 0.000314 | 552000 | 0.566 | 1 | 0.000334 | 590000 | – |
| B3 | – | – | – | – | – | – | – | – | – | binds |
